The target in assay [1] is T1, secretion-type human IAP antigen (human, UniProt Q08722 19-142, limits assumed).
T1 construct: captured on plates coated with anti-FLAG antibody
The assay is described as follows: competitive ELISA: secretion-type human IAP captured on anti-FLAG antibody; competitor biotinized MABL-2 antibody at 100 ng/ml; serial dilutions of COS7 culture supernatant (x axis: dilution ratio of CM, no concentration unit). The procedure:
The binding activity of the reconstructed single chain Fv of antibody MABL-2 was measured based on the inhibiting activity against the binding of mouse monoclonal antibodies to the antigen.
The anti-FLAG antibody adjusted to 1 μg/ml was added to each well on 96-well plate and incubated at 37° C. for 2 hours. After washing, blocking was performed with 1% BSA-PBS. After incubating and washing at a room temperature, the culture supernatant of COS7 cells into which the secretion-type human IAP antigen gene (SEQ ID No. 26) had been introduced was diluted with PBS into twofold volume and added to each well. After incubating and washing at a room temperature, a mixture of 50 μl of the biotinized MABL-2 antibody adjusted to 100 ng/ml and 50 μl of sequentially diluted supernatant of the COS7 cells expressing the reconstructed single chain Fv of antibody MABL-2 were added into each well. After incubating and washing at a room temperature, the alkaline phosphatase-conjugated streptoavidin (Zymed) was added into each well. After incubating and washing at a room temperature, the substrate solution (SIGMA) was added and absorbance of the reaction mixture in each well was measured at 405 nm.

Assay [2] has as its target T2, human Integrin Associated Protein (IAP) expressed on mouse leukemia cell line L1210 (human, UniProt Q08722 19-323).
T2 construct: whole, on cells; also called human IAP; hIAP/L1210
The assay is described as follows: flow cytometry on L1210 cells expressing human IAP; COS7 culture supernatant; mouse anti-FLAG antibody, then FITC-labeled anti-mouse IgG antibody. How it is done:
Flow cytometry was performed using the aforementioned COS7 cells culture supernatant to measure the binding to the antigen. The culture supernatant of the COS7 cells expressing the reconstructed single chain Fv of antibody MABL-2 or the culture supernatant of COS7 cells transformed with pCHO1 vector as a control was added to 2×10⁵ cells of the mouse leukemia cell line L1210 expressing human Integrin Associated Protein (IAP) or the cell line L1210 transformed with pCOS1 as a control. After incubating on ice and washing, the mouse anti-FLAG antibody (SIGMA) was added. Then the cells were incubated and washed. Then, the FITC labeled anti-mouse IgG antibody (BECTON DICKINSON) was added thereto and the cells were incubated and washed again. Subsequently, the fluorescence intensity was measured using the FACScan apparatus (BECTON DICKINSON).
Background: Flow cytometry measures light scatter and fluorescence of single cells or particles in a stream.

T2 sequence (Q08722 19-323): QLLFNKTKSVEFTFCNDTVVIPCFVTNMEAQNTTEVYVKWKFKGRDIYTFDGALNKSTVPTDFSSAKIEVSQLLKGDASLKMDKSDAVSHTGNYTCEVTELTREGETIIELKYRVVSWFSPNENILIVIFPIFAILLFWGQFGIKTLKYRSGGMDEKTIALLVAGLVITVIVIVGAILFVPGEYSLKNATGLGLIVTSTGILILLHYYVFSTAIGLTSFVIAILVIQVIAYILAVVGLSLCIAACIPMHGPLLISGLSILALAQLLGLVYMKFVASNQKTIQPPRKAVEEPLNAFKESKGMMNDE
T1 sequence (Q08722 other isoform, or with tags, fused parts or gaps limits assumed): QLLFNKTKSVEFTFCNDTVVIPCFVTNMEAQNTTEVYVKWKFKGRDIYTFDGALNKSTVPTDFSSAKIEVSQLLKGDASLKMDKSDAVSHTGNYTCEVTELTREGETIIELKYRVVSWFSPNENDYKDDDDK

B1: reconstructed single chain Fv of antibody MABL-2 (plasmid pCHOM2), culture supernatant of COS7 cells (scFv)
scFv: QVQLQQSGPELVKPGASVKMSCKASGYTFANHVIHWVKQKPGQGLEWIGYIYPYNDGTKYNEKFKDKATLTSDKSSTTAYMDLSSLASEDSAVYYCARGGYYTYDDWGQGTTLTVSSGGGGSGGGGSGGGGSDVVMTQSPLSLPVSLGDQASISCRSSQSLVHSNGKTYLHWYLQKPGQSPKLLIYKVSNRFSGVPDRFSGSGSVTDFTLMISRVEAEDLGVYFCSQSTHVPYTFGGGTKLEIKDYKDDDDK
notes: VH-(Gly4Ser)3-VL-FLAG; Unfractionated supernatant (monomer and dimer not separated); also called MABL2-scFv; MABL2-scFv/COS7
In the case of B1, the binding result in assay [1] and in assay [2] was “binds” each time.
